Data taken from US20150315275A1 (AstraZeneca / MedImmune, published 2015).

T1: mouse B7-H4ECD mIgG2a Fc fusion protein (mouse, UniProt Q7TSP5 25-257, limits assumed)
T1 construct: also called mouse B7-H4-mIg fusion protein; Mouse B7-H4-mouse-Ig Fusion Protein; not shown: mouse IgG2a Fc
T1 sequence: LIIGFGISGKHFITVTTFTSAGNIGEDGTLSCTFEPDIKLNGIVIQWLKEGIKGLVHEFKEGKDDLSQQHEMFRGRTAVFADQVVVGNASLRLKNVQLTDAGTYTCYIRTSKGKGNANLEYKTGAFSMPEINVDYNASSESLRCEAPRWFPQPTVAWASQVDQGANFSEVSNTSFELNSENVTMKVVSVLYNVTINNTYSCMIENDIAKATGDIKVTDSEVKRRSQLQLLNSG


Biological target: T1, mouse B7-H4ECD mIgG2a Fc fusion protein
Experiment: ELISA, mouse B7-H4ECD mIgG2a Fc fusion coated
Procedure: 100 μg/ml mouse B7-H4ECD mIgG2a Fc fusion protein diluted in PBS was immobilized on flat bottom 96 well plate (Costar 9017) overnight at 4° C. Plates were washed twice with PBS+0.1% PS-20 and blocked with 200 μl/well PBS 10% FBS at RT for 1 hr. 100 μl chimeric 6H3 and 14 selected 6H3 humanized variants diluted in PBS 10% FBS were added to each well and incubated at RT for 1 hr. Plates were washed three times and 100 μl 1 μg/ml anti-human Ig HRP (Sigma) was added to each well and incubated at RT for 1 hr. Plates were washed six times and 100 μl TMB substrate (SurModics) was added to each well for 5-15 mins 100 μl stop solution (0.1M Sulfuric acid) was added to each well. Plates were read at Absorbance 450 nm by PerkinElmer EnVision 2104 Multilabel Reader.

EC50 | Binder
0.1 nM | humanized 6H3 variant 1 (antibody, V domains shown, also called V1; H1A L1B) VH: QVQLVQSGAEVKKPGASVKVSCKASGYTFTDYYMHWVRQAPGQGLEWMGIINPYNGDTSYAQKFQGRVTMTRDTSTSTVYMELSSLRSEDTAVYYCARYPESTYWGQGTLVTVSS VL: DVVMTQSPLSLPVTLGQPASISCRSSQSLVHINGNTYLHWYQQRPGQSPRVLIYKVSNRFSGVPDRFSGSGSGTDFTLKISRVEAEDVGVYFCSQSTHVPLTFGGGTKVEIK
0.06 nM | humanized 6H3 variant 8 (antibody, V domains shown, also called V8; H1A L2B) VH: QVQLVQSGAEVKKPGASVKVSCKASGYTFTDYYMHWVRQAPGQGLEWMGIINPYNGDTSYAQKFQGRVTMTRDTSTSTVYMELSSLRSEDTAVYYCARYPESTYWGQGTLVTVSS VL: DIVMTQTPLSLPVTLGQPASISCRSSQSLVHINGNTYLHWYQQRPGQSPRVLIYKVSNRFSGVPDRFSGSGSGTDFTLKISRVEAEDVGVYFCSQSTHVPLTFGQGTKVEIK
